From patent publication JP2019156807A come the findings set out here.

Where “and” joins values, the source holds several entries; their conditions need not be identical. Equal values may be shown once.

The target of the assay is 変性ヒトCD26(ホルマリン固定パラフィン包埋した細胞・組織中、又はSDS/DTT煮沸処理した細胞溶解物中のヒトCD26) (human) (UniProt P27487). Put plainly: immunostaining of FFPE samples, titration of purified antibody (data not shown).
Chain of UniProt P27487 (P27487 whole entry): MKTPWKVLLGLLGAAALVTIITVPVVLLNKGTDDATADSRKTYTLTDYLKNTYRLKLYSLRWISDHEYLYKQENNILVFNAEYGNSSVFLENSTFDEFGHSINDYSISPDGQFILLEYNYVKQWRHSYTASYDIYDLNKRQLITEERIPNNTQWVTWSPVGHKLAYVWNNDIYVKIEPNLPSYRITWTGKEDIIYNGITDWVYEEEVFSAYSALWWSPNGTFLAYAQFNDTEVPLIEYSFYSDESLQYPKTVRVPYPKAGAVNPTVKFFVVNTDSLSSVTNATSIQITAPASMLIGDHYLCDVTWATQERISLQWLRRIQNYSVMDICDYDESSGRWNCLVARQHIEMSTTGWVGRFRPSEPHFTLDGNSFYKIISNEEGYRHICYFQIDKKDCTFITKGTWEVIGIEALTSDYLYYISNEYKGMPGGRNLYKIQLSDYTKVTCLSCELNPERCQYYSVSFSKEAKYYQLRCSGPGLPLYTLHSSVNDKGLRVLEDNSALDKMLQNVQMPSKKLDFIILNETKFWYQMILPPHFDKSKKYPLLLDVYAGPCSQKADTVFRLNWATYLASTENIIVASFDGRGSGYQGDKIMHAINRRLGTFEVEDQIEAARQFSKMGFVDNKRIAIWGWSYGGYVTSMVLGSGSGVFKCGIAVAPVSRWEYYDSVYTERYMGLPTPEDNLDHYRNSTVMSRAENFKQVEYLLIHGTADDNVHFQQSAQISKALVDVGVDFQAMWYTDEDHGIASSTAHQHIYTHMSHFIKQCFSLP

B1: 抗ヒトCD26モノクローナル抗体U16−3 (antibody, V domains shown)
VH: EVKLVESGGGLVQPGGSLKLSCATSGFTFSDFYMYWVRQTPEKRLEWVAYISKGGGTTSYPDTVKGRFTISRDNAKNTLYLQLSRLKAEDSAMYYCARRMDYWGQGTSVTVSS
VL: DVQMNQSPSSMYASLGERVTITCKASQDINSYLSWFQQKPGKSPKTLIYRANRLVDGVPSRFSGSGSGQDYSLTISSLDYEDMGIYYCLQYDEFPLTFGAGTKLELK
Regarding B1, the 免疫染色の最適濃度 is 0.1 μg/mL and 0.2 μg/mL.

B2: 抗ヒトCD26モノクローナル抗体U38−8 (antibody, V domains shown)
VH: B1 VH
VL: DVVVTQTPLSLPVSLGDQASISCRSSQGLEHSSGNTYLHWYLQRPGQSPKLLIYKVSNRFSGVPDRFSGSGSGTDFTLKISRVEAEDLGVYFCSQSTPVPTWTFGGGTKLEIK
In turn, B2 had a 免疫染色の最適濃度 of 0.5 μg/mL.
